Measured values published in patent publication US20260167713A1 (UCB, published 2026).
Numbering of substitutions follows the chain as printed.

T1: recombinant full-length human beta-catenin (human, UniProt P35222 2-781, biotinylated in the ELISA and SPR assays (sites not given); not biotinylated on the Western blots)
T1 construct: Tags are not described; also called β-catenin; biotinylated beta-catenin
T1 sequence: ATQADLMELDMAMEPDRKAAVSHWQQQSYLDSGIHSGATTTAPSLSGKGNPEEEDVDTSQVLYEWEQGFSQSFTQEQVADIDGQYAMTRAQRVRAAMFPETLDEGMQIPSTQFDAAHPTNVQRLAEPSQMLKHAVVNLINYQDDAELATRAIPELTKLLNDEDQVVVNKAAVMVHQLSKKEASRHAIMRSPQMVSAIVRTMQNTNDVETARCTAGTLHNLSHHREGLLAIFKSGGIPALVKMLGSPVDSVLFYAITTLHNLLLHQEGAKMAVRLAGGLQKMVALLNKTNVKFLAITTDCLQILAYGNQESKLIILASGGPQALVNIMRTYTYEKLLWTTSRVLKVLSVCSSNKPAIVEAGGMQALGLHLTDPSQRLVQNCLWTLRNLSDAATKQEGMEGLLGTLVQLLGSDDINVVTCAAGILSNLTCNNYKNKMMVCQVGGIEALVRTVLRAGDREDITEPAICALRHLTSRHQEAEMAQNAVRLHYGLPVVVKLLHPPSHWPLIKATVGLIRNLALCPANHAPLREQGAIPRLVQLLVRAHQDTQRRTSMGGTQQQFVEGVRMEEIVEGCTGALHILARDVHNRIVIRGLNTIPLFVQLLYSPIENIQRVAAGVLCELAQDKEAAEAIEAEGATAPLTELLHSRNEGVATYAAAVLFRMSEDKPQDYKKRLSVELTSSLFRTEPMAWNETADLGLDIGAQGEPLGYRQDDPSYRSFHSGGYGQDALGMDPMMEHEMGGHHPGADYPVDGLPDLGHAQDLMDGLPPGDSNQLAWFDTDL

B1: IBO.CDRAAA (1)-scFc (Fc fusion, not shown: a dimerising Fc or GST; small tags and cut ends)
VHH: QVQLVQSGGGLVQAGDSLRLACAASEGTFRTNVMGWFRQAPGKEREFVAAISWSGGITHYSNSVKGRFAISRDNAKNTVYLQMNSLKPEDTAVYYCAADPSTTAAALRVRVNEYEYWGQGTQVTVSS
notes: CDR3 mutant control of O in the VHH-scFc format; also called VH-O.CDRAAA(1)
B2: IBO.CDRAAA (2)-scFc (Fc fusion, not shown: a dimerising Fc or GST; small tags and cut ends)
VHH: B1 VHH with A104P, A105W, A106N, R108A, V109A, R110A
notes: CDR3 mutant of O in the VHH-scFc format; also called VH-O.CDRAAA(2)
B3: IBS.CDRAAA-scFc (Fc fusion, not shown: a dimerising Fc or GST; small tags and cut ends)
VHH: QVQLVQSGGGLVQAGGSLRLSCAASGVSFSRTSLGWFRQAPGKEREFVSVISWIGGTTYYADSLKGRFTISRDNAKSTVYLQMNSLKPEDTALYYCAISNGVLPATAGAAASWGQGTQVTVSS
notes: CDR3 mutant control of S in the VHH-scFc format; also called VH-S.CDRAAA
B4: intrabody V1 (VHH expressed intracellularly) (VHH, not shown: small tags and cut ends)
VHH: QVQLVQSGGGLVQPGGSLRLSCAASGSISSNNVMGWYRQGPGKQREFVASITDSDLANYAASVKGRFTISRDNAKNTVNLQMNSLRPEDTDVYYCRLTMMTYPPTISWGQGTQVTVSS
B5: intrabody O (VHH expressed intracellularly) (VHH, not shown: small tags and cut ends)
VHH: B1 VHH with A104P, A105W, A106N
B6: intrabody V2 (VHH expressed intracellularly) (VHH, not shown: small tags and cut ends)
VHH: B4 VHH with T105I
B7: intrabody V3 (VHH expressed intracellularly) (VHH, not shown: small tags and cut ends)
VHH: B4 VHH with Q6E, S27T, I51V, D91G, M99I
B8: intrabody S (VHH expressed intracellularly) (VHH, not shown: small tags and cut ends)
VHH: B3 VHH with Q6E, A105R, A107E, A110F
B9: IBV1.CDRAAA-scFc (Fc fusion, not shown: a dimerising Fc or GST; small tags and cut ends)
VHH: B4 VHH with Y102A, P103A, P104A
notes: CDR3 mutant control of V1 in the VHH-scFc format; also called VH-V1.CDRAAA
B10: IBO-scFc (Fc fusion, not shown: a dimerising Fc or GST; large carriers; small tags and cut ends)
VHH: B1 VHH with A104P, A105W, A106N
notes: Single chain mouse IgG Fc construct; It is placed under this molecule; also called VH-O; biotinylated-'O'
B11: IBV1-scFc (Fc fusion, not shown: a dimerising Fc or GST; large carriers; small tags and cut ends)
VHH: B4 VHH
notes: Single chain mouse IgG Fc construct, used as transient HEK293 supernatant; also called VH-V1; VHH-scFc of V1
B12: IBV2-scFc (Fc fusion, not shown: a dimerising Fc or GST; large carriers; small tags and cut ends)
VHH: B4 VHH with T105I
notes: Single chain mouse IgG Fc construct, used as transient HEK293 supernatant; also called VH-V2
B13: IBV3-scFc (Fc fusion, not shown: a dimerising Fc or GST; large carriers; small tags and cut ends)
VHH: B4 VHH with Q6E, S27T, I51V, D91G, M99I
notes: Single chain mouse IgG Fc construct, used as transient HEK293 supernatant; also called VH-V3
B14: IBS-scFc (Fc fusion, not shown: a dimerising Fc or GST; large carriers; small tags and cut ends)
VHH: B3 VHH with Q6E, A105R, A107E, A110F
notes: Single chain mouse IgG Fc construct, used as transient HEK293 supernatant; also called VH-S

Biological target: T1, recombinant full-length human …
Assay: ELISA: biotinylated beta-catenin captured on streptavidin plates, VHH-scFc in half-log dilutions from 32 nM, anti-mouse Fc HRP, delta OD 630/490 nm [lower panel]
Experimental: FIG. 6: beta-catenin binding ELISA results for parent VHHs and CDR3 mutants. […] The plates were read at 630 and 490 nm and ΔOD recorded. The negative control is a ‘no DNA’ control transfection culture supernatant.
Beta-catenin binding ELISA: ELISA plates were coated with streptavidin ([…]). Biotinylated beta-catenin (1 mg/mL) was added in PBS, for 30 minutes. Blocked samples were added (phage samples or transient VHHscFc samples). After an hour, bound samples were detected using a suitable antibody at 1 in 5,000 dilution in PBS (containing 3% BSA). Detection antibodies were goat anti-M13-HRP (GE Healthcare) or goat anti-mouse Fc HRP (Jackson ImmunoResearch).
The binding of the parent intrabodies and CDR3 mutants to recombinant β-catenin was also tested by ELISA. […] IBV1.CDRAAA and IBS.CDRAAA also appeared to be suitable CDR3 mutant controls for their respective parent except for their lower expression levels within the bioassay. This is not uncommon in conventional antibody expression and single point mutations in antibody CDRs leading to over a 100-fold reduction in expression have been previously reported.

Binder	binding result
B1	no binding (tested: 32 nM)
B2	binds
B3	no binding (tested: 32 nM)

Biological target: endogenous beta-catenin (HEK293 cells) (human) (UniProt P35222)
Assay: cell-based or functional assay

Binder	firefly luciferase activity signal, PPSP-stimulated HEK293 TCF/LEF reporter bioassay (% of control VHH signal)	inhibition of beta-catenin co-transcriptional activity, HEK293 bioassay stimulated with LiCl2, against IBO.CDRAAA (1)	inhibition of beta-catenin co-transcriptional activity, HEK293 bioassay stimulated with Wnt3a-conditioned media, against IBO.CDRAAA (1)	percentage inhibition of firefly luciferase production in the bioassay, IBO against IBO.CDRAAA (1)
B4	< 25	–	–	–
B5	< 25	65%	66%	83%
B6	< 25	–	–	–
B7	< 25	–	–	–
B8	< 25	–	–	–

Biological target: T1, recombinant full-length human …
Assay: Western blot of reduced recombinant beta-catenin on PVDF, probed with IBV1.CDRAAA-scFc transient supernatant at 16 nM, detected with anti-mouse Fc HRP
Experimental: FIG. 5: Reducing anti-beta-catenin Western blots probed by the intrabodies. Gel A:) IBV1-scFc (23 nM), Gel B: IBV2-scFc (110 nM), Gel C: IBV3-scFc (85 nM) and Gel D: IBV1.CDRAAA-scFc (16 nM) transient supernatants. Any binding was detected with t anti-mouse Fc HRP antibody. In each gel, Lane 1) 15 ng beta-catenin, Lane 2) 7.5 ng beta-catenin, Lane 3) 3.75 ng beta-catenin.
The presence of beta-catenin was successfully detected by all three parent VHHs and not by the control mutant IBV1.CDRAAA.

Binder	binding result
B9	no binding (tested: 16 nM)

Biological target: T1, recombinant full-length human …
Assay: SPR (Biacore T100), biotinylated beta-catenin captured on streptavidin, VHH-scFc in solution
Experimental: SPR-Affinity measurements: Affinity measurements were performed using a Biacore™T100. Streptavidin was immobilised onto the carboxymethylated dextran coated gold surface of a CM5 sensor chip using amine coupling chemistry, as per manufacture's instructions. The concentrations of streptavidin used in flow cells 1˜4 respectively were 0 μg/mL, 5 μg/mL, 15 μg/mL, 45 μg/mL in 10 mM NaOAc pH5. Biotinylated beta-catenin was then captured on flow cells 2-4 whilst flow cell 1 was the control reference cell. Samples of VHH-scFc at 1 in 2, 1 in 5, 1 in 10, 1 in 20 and 1 in 40 dilutions in HBS-EP were passed over all flow cells for 5 minutes at 30 μL/minute. Buffer blanks were run between every sample set and control transfection supernatant samples were included in each run. Between each sample the chip was regenerated by the addition of 30 μL of 2M guanidine hydrochloride followed by 30 μL of 40 mM HCl. Affinity constants were determined by the fitting of resulting data using BiaEvalution software with a Langmuir 1:1 association method, associations were rejected if the Chi2 value was greater than 1; if the residual data points were not randomly distributed or if the residuals were greater than +/−2 RU. The association data were plotted for the most dilute samples which still gave a RU capture response of at least 40RU. A minimum of four different combinations of dilutions and different beta-catenin coated flow cells were used to calculate association ‘on-rate’ (ka) or dissociation data ‘off-rate’ (kd), and used to calculate KD=kd/ka.

Binder	Kd	koff	kon
B10	3.65 nM	0.00026 s⁻¹	71100 M⁻¹ s⁻¹
B11	6.49 nM	0.000163 s⁻¹	25100 M⁻¹ s⁻¹
B12	4.47 nM	0.000165 s⁻¹	36900 M⁻¹ s⁻¹
B13	4.38 nM	0.000169 s⁻¹	38500 M⁻¹ s⁻¹
B14	3.78 nM	0.000248 s⁻¹	65600 M⁻¹ s⁻¹

Biological target: T1, recombinant full-length human …
Assay: ELISA on captured biotinylated beta-catenin

Binder	Kd
B10	< 10 nM
B11	< 10 nM
B12	< 10 nM
B13	< 10 nM
B14	< 10 nM
